Kd and koff data for 22 molecules are collected here from US20090208447A1 (MEDIGENE, published 2009).

A word on the Kd: it is a measure of binding affinity in units of concentration. A high value points to a looser complex. One may read the koff as the first-order rate constant of dissociation. A low value points to slow dissociation.

B1: SEQ ID NO 60 (receptor)
chain: MGHLPKPTLWAEPGSVITMDQPVTLRCQGGQETQEYRLYREKKTAPWITRIPQELVKKGQFPIPSITWEHAGRYRCIGRSQTSQWSASSDPLELVVTGIYLAPTLSAQPSPVVNSGGNVTLQCDSQVAFDGFILCKEGEDEHPQCLNSQPHARGSSRAIFSVGPVSPSRRWWYRCYAYDSNSPYEWSLPSDLLELLVL
B2: SEQ ID NO 61 (receptor)
chain: MGHLPKPTLWAEPGSVITLGQPVTLRCQGGQETQEYRLYREKKTAPWITRIPQELVKKGQFPIPSITWEHAGRYRCIGRSQTSQWSASSDPLELVVTGIYLAPTLSAQPSPVVNSGGNVTLQCDSQVAFDGFILCKEGEDEHPQCLNSQPHARGSSRAIFSVGPVSPSRRWWYRCYAYDSNSPYEWSLPSDLLELLVL
B3: SEQ ID NO 62 (receptor)
chain: MHLPKPTLWAEPGSVITMDQPVTLRCQGGQETQEYRLYREKKTAPWITRIPQELVKKGQFPIPSITWEHAGRYRCYYGSDTSQWSASSDPLELVVTGVYIKPTLSAQPSPVVNSGGNVTLQCDSQVAFDGFILCKEGEDEHPQCLNSQPHARGSSRAIFSVGPVSPSRRWWYRCYAYDSNSPYEWSLPSDLLELDVDG
B4: SEQ ID NO 69 (receptor)
chain: MHLPKPTLWAEPGSVITLQSPVTLRCQGGQETQEYRLYREKKTAPWITRIPQELVKKGQFPIPSITWEHAGRYRCYYGSDTSQWSASSDPLELVVTGVYIKPTLSAQPSPVVNSGGNVTLQCDSQVAFDGFILCKEGEDEHPQCLNSQPHARGSSRAIFSVGPVSPSRRWWYRCYAYDSNSPYEWSLPSDLLELDVDG
B5: SEQ ID NO 67 (receptor)
chain: MHLPKPTLWAEPGSVITLGSPVTLRCQGGQETQEYRLYREKKTAPWITRIPQELVKKGQFPIPSITWEHAGRYRCYYGSDTSQWSASSDPLELVVTGVYIKPTLSAQPSPVVNSGGNVTLQCDSQVAFDGFILCKEGEDEHPQCLNSQPHARGSSRAIFSVGPVSPSRRWWYRCYAYDSNSPYEWSLPSDLLELDVDG
B6: SEQ ID NO 70 (receptor)
chain: MHLPKPTLWAEPGSVITLESPVTLRCQGGQETQEYRLYREKKTAPWITRIPQELVKKGQFPIPSITWEHAGRYRCYYGSDTSQWSASSDPLELVVTGVYIKPTLSAQPSPVVNSGGNVTLQCDSQVAFDGFILCKEGEDEHPQCLNSQPHARGSSRAIFSVGPVSPSRRWWYRCYAYDSNSPYEWSLPSDLLELDVDG
B7: SEQ ID NO 64 (receptor)
chain: MHLPKPTLWAEPGSVITMDQPVTLRCQGGQETQEYRLYREKKTAPWITLIPQELVKKGQFPIPSITWEHAGRYRCYYGSDTSQWSASSDPLELVVTGVYIKPTLSAQPSPVVNSGGNVTLQCDSQVAFDGFILCKEGEDGHPQCLNSQPHARGSSRAIFSVGPVSPSRRWWYWCYAYDSNSPYEWSLPSDLLELDVDG
B8: SEQ ID NO 63 (receptor)
chain: MHLPKPTLWAEPGSVITMDQPVTLRCQGGQETQEYRLYREKKTAPWITRIPQELVKKGQFPIPSITWEHAGRYRCYYGSDTSQWSASSDPLELVVTGVYIKPTLSAQPSPVVNSGGNVTLQCDSQVAFDGFILCKEGEDEHPQCLNSQPHARGSSRAIFSVGPVSPSRRWRYRCYAYDSNSPYEWSLPSDLLELDVDG
B9: SEQ ID NO 66 (receptor)
chain: MHLPKPTLWAEPGSVITLGQPVTLRCQGGQETQEYRLYREKKTAPWITRIPQELVKKGQFPIPSITWEHAGRYRCYYGSDTSQWSASSDPLELVVTGVYIKPTLSAQPSPVVNSGGNVTLQCDSQVAFDGFILCKEGEDEHPQCLNSQPHARGSSRAIFSVGPVSPSRRWWYRCYAYDSNSPYEWSLPSDLLELDVDG
B10: SEQ ID NO 65 (receptor)
chain: MHLPKPTLWAEPGSVITMDQPVTLRCQGGQETQEYRLYRERKTAPWITRIPQELVKKGQFPIPSITWEHAGRYRCYYGSDTSQWSASSDPLELVVTGVYIKPTLSAQPSPVVNSGGNVTLQCDSQVAFDGFILCKEGEDEHPQCLNSQPHARGSSRAIFSVGPVSPSRRWWYRCYAYDSNSPYEWSLPSDLLELDVDG
B11: SEQ ID NO 68 (receptor)
chain: MHLPKPTLWAEPGSVITLRSPVTLRCQGGQETQEYRLYREKKTAPWITRIPQELVKKGQFPIPSITWEHAGRYRCYYGSDTSQWSASSDPLELVVTGVYIKPTLSAQPSPVVNSGGNVTLQCDSQVAFDGFILCKEGEDEHPQCLNSQPHARGSSRAIFSVGPVSPSRRWWYRCYAYDSNSPYEWSLPSDLLELDVDG
B12: SEQ ID NO 49 (receptor)
chain: MGHLPKPTLWAEPGSVITQGSPVTLRCQGGQETQEYRLYREKKTAPQITRIPQELVKKGQFPIPSITWEHAGRYRCYYGSDTAGRSESSDPLELVVTGVYVAPTLSAQPSPVVNSGGNVTLQCDSQVAFDGFILCKEGEDEHPQCLNSQPHARGSSRAIFSVGPVSPGRRWWYRCYAYDSNSPYEWSLPSDLLELLVL
B13: SEQ ID NO 56 (receptor)
chain: MGHLPKPTLWAEPGSVITMDQPVTLRCQGGQETQEYRLYREKKTAPWITRIPQELVKKGQFPIPSITWEHAGRYRCYYGSDTAGRSESSDPLELVVTGIYLAPTLSAQPSPVVNSGGNVTLQCDSQVAFDGFILCKEGEDEHPQCLNSQPHARGSSRAIFSVGPVSPSRRWWYRCYAYDSNSPYEWSLPSDLLELLVL
B14: SEQ ID NO 50 (receptor)
chain: MGHLPKPTLWAEPGSVITQGSPVTLRCQGGQETQEYRLYREKKTAPWITRIPQELVKKGQFPIPSITWEHAGRYRCYYGSDTAGRSESSDPLELVVTGIYKAPTLSAQPSPVVNSGGNVTLQCDSQVAFDGFILCKEGEDEHPQCLNSQPHARGSSRAIFSVGPVSPGRRWWYRCYAYDSNSPYEWSLPSDLLELLVL
B15: SEQ ID NO 52 (receptor)
chain: MGHLPKPTLWAEPGSVITQGSPVTLRCQGGQETQEYRLYREKKTAPWITRIPQELVKKGQFPIPSITWEHAGRYRCYYGSDTAGRSESSDPLELVVTGIYQAPTLSAQPSPVVNSGGNVTLQCDSQVAFDGFILCKEGEDEHPQCLNSQPHARGSSRAIFSVGPVSPGRRWWYRCYAYDSNSPYEWSLPSDLLELLVL
B16: SEQ ID NO 57 (receptor)
chain: MGHLPKPTLWAEPGSVITLGQPVTLRCQGGQETQEYRLYREKKTAPWITRIPQELVKKGQFPIPSITWEHAGRYRCYYGSDTAGRSESSDPLELVVTGIYLAPTLSAQPSPVVNSGGNVTLQCDSQVAFDGFILCKEGEDEHPQCLNSQPHARGSSRAIFSVGPVSPSRRWWYRCYAYDSNSPYEWSLPSDLLELLVL
B17: SEQ ID NO 59 (receptor)
chain: MGHLPKPTLWAEPGSVITLGQPVTLRCQGGQETQEYRLYREKKTAPWITRIPQELVKKGQFPIPSITWEHAGRYRCYYGSDTSQWSASSDPLELVVTGIYLAPTLSAQPSPVVNSGGNVTLQCDSQVAFDGFILCKEGEDEHPQCLNSQPHARGSSRAIFSVGPVSPSRRWWYRCYAYDSNSPYEWSLPSDLLELLVL
B18: SEQ ID NO 54 (receptor)
chain: MGHLPKPTLWAEPGSVITQGSPVTLRCQGGQETQEYRLYREKKTAPWITRIPQELVKKGQFPIPSITWEHAGRYRCYYGSDTAGRSESSDPLELVVTGIYKQPTLSAQPSPVVNSGGNVTLQCDSQVAFDGFILCKEGEDEHPQCLNSQPHARGSSRAIFSVGPVSPGRRWWYRCYAYDSNSPYEWSLPSDLLELLVL
B19: SEQ ID NO 51 (receptor)
chain: MGHLPKPTLWAEPGSVITQGSPVTLRCQGGQETQEYRLYREKKTAPWITRIPQELVKKGQFPIPSITWEHAGRYRCYYGSDTAGRSESSDPLELVVTGIYQRPTLSAQPSPVVNSGGNVTLQCDSQVAFDGFILCKEGEDEHPQCLNSQPHARGSSRAIFSVGPVSPGRRWWYRCYAYDSNSPYEWSLPSDLLELLVL
B20: SEQ ID NO 58 (receptor)
chain: MGHLPKPTLWAEPGSVITMDQPVTLRCQGGQETQEYRLYREKKTAPWITRIPQELVKKGQFPIPSITWEHAGRYRCYYGSDTSQWSASSDPLELVVTGIYLAPTLSAQPSPVVNSGGNVTLQCDSQVAFDGFILCKEGEDEHPQCLNSQPHARGSSRAIFSVGPVSPSRRWWYRCYAYDSNSPYEWSLPSDLLELLVL
B21: SEQ ID NO 55 (receptor)
chain: MGHLPKPTLWAEPGSVITQGSPVTLRCQGGQETQEYRLYREKKTAPWITRIPQELVKKGQFPIPSITWEHAGRYRCYYGSDTAGRSESSDPLELVVTGIYQKPTLSAQPSPVVNSGGNVTLQCDSQVAFDGFILCKEGEDEHPQCLNSQPHARGSSRAIFSVGPVSPSRRWWYRCYAYDSNSPYEWSLPSDLLELLVL
B22: SEQ ID NO 53 (receptor)
chain: MGHLPKPTLWAEPGSVITQGSPVTLRCQGGQETQEYRLYREKKTAPWITRIPQELVKKGQFPIPSITWEHAGRYRCYYGSDTAGRSESSDPLELVVTGIYLQPTLSAQPSPVVNSGGNVTLQCDSQVAFDGFILCKEGEDEHPQCLNSQPHARGSSRAIFSVGPVSPGRRWWYRCYAYDSNSPYEWSLPSDLLELLVL

The target of the test is HLA-A*0201 loaded with the Carcinoembryonic antigen (CEA)-derived … peptide (biotinylated on the C-terminal biotinylation tag). The experiment in a line: SPR (Biacore), Example 4.
B1: the Kd was at most 1000 nM and the koff is at most 2 s⁻¹.
Taken in the same sequence, the figures for B2 were at most 1000 nM and at most 2 s⁻¹.
B3: the dissociation constant Kd was at most 1000 nM and the koff was at most 2 s⁻¹.
In the same order, the values of B4 are at most 1000 nM and at most 2 s⁻¹.
In turn, B5 yielded an equilibrium dissociation constant (Kd) of at most 1000 nM and a koff of at most 2 s⁻¹.
In the same order, the values of B6 are at most 1000 nM and at most 2 s⁻¹.
Taken in the same sequence, the figures for B7 were at most 1000 nM and at most 2 s⁻¹.
Molecule B8 yielded a Kd of at most 1000 nM and a koff of at most 2 s⁻¹.
B9 came in with a Kd of at most 1000 nM and a koff of at most 2 s⁻¹.
B10 returned a Kd of at most 1000 nM and a koff of at most 2 s⁻¹.
Taken in the same sequence, the figures for B11 were at most 1000 nM and at most 2 s⁻¹.
For B12, the Kd was at most 1000 nM and the koff is at most 2 s⁻¹.
In the case of B13, the Kd was at most 1000 nM and the koff was at most 2 s⁻¹.
In the same order, the values of B14 are at most 1000 nM and at most 2 s⁻¹.
In the same order, the values of B15 are at most 1000 nM and at most 2 s⁻¹.
Taken in the same sequence, the figures for B16 were at most 1000 nM and at most 2 s⁻¹.
For B17, the Kd was at most 1000 nM and the koff was at most 2 s⁻¹.
B18 returned a Kd of at most 1000 nM and a koff of at most 2 s⁻¹.
Consider B19, for which the Kd is at most 1000 nM and the koff is at most 2 s⁻¹.
Regarding B20, the equilibrium dissociation constant (Kd) is at most 1000 nM and the koff was at most 2 s⁻¹.
B21 yielded a Kd of at most 1000 nM and a koff of at most 2 s⁻¹.
On to B22, for which the Kd was at most 1000 nM and the koff was at most 2 s⁻¹.
